Publication PMC5449601

Key:
[1] = biological target: HNRNPG N-RRM (GST fusion) (human, UniProt P38159 1-83); assay: EMSA
[2] = biological target: HNRNPG C-RBD mutant, all three RGG to FGG (GST fusion) (human, UniProt P38159 334-391, R373F;R377F;R384F); assay: UV cross-linking
[3] = biological target: HNRNPG C-RBD (GST fusion) (human, UniProt P38159 334-391); assay: EMSA
Chain of HNRNPG C-RBD (GST fusion) (P38159 334-391): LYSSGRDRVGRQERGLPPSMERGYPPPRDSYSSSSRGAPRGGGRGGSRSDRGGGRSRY

Chain of HNRNPG C-RBD mutant, all three RGG to FGG (GST fusion) (P38159 334-391 R373F/R377F/R384F): as the sequence (P38159 334-391) above, with R40F, R44F, R51F counted along it
Chain of HNRNPG N-RRM (GST fusion) (P38159 1-83): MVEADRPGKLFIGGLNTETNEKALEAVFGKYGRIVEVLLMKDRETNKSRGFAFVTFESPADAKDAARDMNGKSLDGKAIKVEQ

Binder | binding result [1] | binding result [2] | binding result [3]
AAUGUGAAGGACUUUCGUAACGGAAGUAAUUCAA (structured_RNA, 3' biotin) [MALAT1 hairpin 2,515-A] | no binding | no binding | binds
AAUGUGAAGGACUUUCGUAACGGAAGUAAUUCAA (structured_RNA, m6A at position 11; 3' biotin) [MALAT1 hairpin 2,515-m6A] | no binding | no binding | binds
